Publication PMC11054894, “Sortase-Modified Cholera Toxoids Show Specific Golgi Localization” (Toxins, 2024)

Experiments:
Test in all cases: SDS-PAGE without boiling
[1] = target: FITC-labeled cholera toxin B (sortase-labeled GGG-CTB) (UniProt P01556)
[2] = target: cholera toxin B with an N-terminal triglycine extension (UniProt P01556)
[3] = target: the molecule itself

Molecule: FITC-labeled cholera toxin B (sortase-labeled GGG-CTB) (from UniProt P01556 22-124) (natural protein)
- stoichiometry N [1]: 5

Molecule: cholera toxin B with an N-terminal triglycine extension (from UniProt P01556 22-124) (natural protein)
- stoichiometry N [2]: 5

B1: cholera toxin B-subunit (natural protein)
chain: TPQNITDLCAEYHNTQIYTLNDKIFSYTESLAGKREMAIITFKNGAIFQVEVPGSQHIDSQKKAIERMKDTLRIAYLTEAKVEKLCVWNNKTPHAIAAISMAN
notes: also called B5; B5 pentamer
- stoichiometry N [3]: 5
